Experimental data taken from patent publication US20250163116A1, “NEW METHOD TO TREAT INFECTIOUS DISEASES” (INSERM (INSTITUT NATIONAL DE LA SANTÉ ET DE LA RECHERCHE …, priority 2022, published 2025).

The molecules below were run on HDMECs infected with Nm 2C4.3 (assay: Integrity of HDMEC monolayers infected with N. meningitidis (VE-cadherin at intercellular junctions, immunofluorescence)). Conditions: 1 μg/mL added 30 min after initiation of Nm infection, 2 h 30.
Assay type: cell-based, human
Protocol: FIG. 1. Exogenous ANGPTL4 exerts protective effects on dermal microvascular endothelial cells infected by N. meningitidis. A. HDMECs were infected with Nm 2C4.3 for 30 min and treated with 1 μg/mL of recombinant human ANGPTL4 for 2 h 30. Cells were fixed and stained for cellular actin, VE-cadherin and DAPI and analyzed by fluorescent microscopy. Quantifications of VE-cadherin enrichment at intercellular junctions and of intercellular spaces area were performed on 30 fields with Image J software. Kruskal-Wallis test ** P<0.001; P<0.0001. B. HDMEC were either uninfected or infected with N. meningitidis 2C4.3 for 30 min and treated with 1 μg mL−1 of recombinant human ANGPTL4, its N-terminal portion (nANGPTL4) or its C-terminal portion (cANGPTL4) for 2 h 30. Caspase-3/7 reagent was added to detect apoptosis in real time over 9 h using the IncuCyte® Live-Cell Analysis System
FIG. 2: Vascular protection is conferred by the N-terminal part of ANGPTL4. A, Schematic representation of ANGPTL4 structure. ANGPTL4 contains a N-terminal portion (nANGPTL4, aa 26-164) linked to a C-terminal portion (cANGPTL4, aa 164-406) by a cleavable linker. nANGPTL4 contains a highly conserved lipoprotein lipase (LPL) binding domain (aa 44-55), two cysteines on position 76 and 80 involved in protein oligomerization and a coiled-coil domain (aa 100-143). The C-terminal portion encodes a fibrinogen-like domain. B, HDMECs were infected with Nm 2C4.3 for 30 min and treated with 1 μg/mL of recombinant human ANGPTL4, nANGPTL4 or cANGPTL4 for 2 h 30. Cells were fixed and stained for cellular actin, VE-cadherin and DAPI and analyzed by fluorescent microscopy. B. Quantifications of VE-cadherin enrichment at intercellular junctions and of intercellular spaces area were performed on 30 fields with Image J software. Kruskal-Wallis test ** P<0.001, *** P<0.0001 of four independent experiments performed in triplicate.
FIG. 3: Vascular protection is conferred by a novel binding motif (aa 66-80) present in the N-terminal part of ANGPTL4. A, the indicated peptides were derived from nANGPTL4. B, HDMECs were infected with Nm 2C4.3 for 30 min and treated with 1 μg/mL of each peptides. Quantifications of VE-cadherin enrichment at intercellular junctions was performed on 30 fields with Image J software.
FIG. 4: Vascular protection is conferred by interaction of nANGPTL4 with Syndecan-4. A, HDMECs were infected with Nm 2C4.3 for 30 min and treated with 1 μg/mL of recombinant human ANGPTL4, nANGPTL4 or cANGPTL4 in the absence or in the presence of anti-SDC4 antibody for 2 h 30. Cells were fixed and stained for cellular actin, VE-cadherin and DAPI and analysed by fluorescent microscopy. Quantifications of VE-cadherin enrichment at intercellular junctions and of intercellular spaces area were performed on 30 fields with Image J software. Kruskal-Wallis test ** P<0.001, **** P<0.00001, ns1 P=0.2172; ns2 P>0.999 of four independent experiments performed in triplicate. B, HDMECs were transfected with small interfering RNA (siRNA) against SDC4 or non-targeting siRNA controls for 48 h, infected with Nm 2C4.3 for 30 min and treated with 1 μg/mL of recombinant human ANGPTL4, for 2 h 30. Quantifications of VE-cadherin enrichment at intercellular junctions and of intercellular spaces area were performed on 30 fields with Image J software. Kruskal-Wallis test ** P<0.001, *** P<0.0001, of two independent experiments performed in triplicate.
The day of infection, a suspension of the bacteria from an overnight culture on GCB agar plate was adjusted to OD600=0.05 and incubated for 2 h at 37° C. in a pre-warmed cell culture medium. Cells were infected with bacteria at a multiplicity of infection (MOI) of 100 bacteria per cell (OD=0.1) for 30 minutes, washed twice to remove non-adherent bacteria and infection was allowed to proceed for various periods of time. Cells were then washed and fixed in 4% paraformaldehyde for immunofluorescence analysis. […]

Molecule	protective effect on monolayer integrity (adherens junctions, cell detachment) of infected HDMECs
nANGPTL4: N-terminal fragment of ANGPTL4, aa 26-164, SEQ ID NO: 24, purchased from R&D Systems (protein, nANGPTL4) GPVQSKSPRFASWDEMNVLAHGLLQLGQGLREHAERTRSQLSALERRLSACGSACQGTEGSTDLPLAPESRVDPEVLHSLQTQLKAQNSRIQQLFHKVAQQQRHLEKQHLRIQHLQSQFGLLDHKHLDHEVAKPARRK	sufficient to maintain cell monolayer integrity upon infection
cANGPTL4: C-terminal fragment of ANGPTL4, aa 164-406, fibrinogen-like domain, purchased from R&D Systems (protein, listed as Homo sapiens) RLPEMAQPVDPAHNVSRLHRLPRDCQELFQVGERQSGLFEIQPQGSPPFLVNCKMTSDGGWTVIQRRHDGSVDFNRPWEAYKAGFGDPHGEFWLGLEKVHSITGDRNSRLAVQLRDWDGNAELLQFSVHLGGEDTAYSLQLTAPVAGQLGATTVPPSGLSVPFSTWDQDHDLRRDKNCAKSLSGGWWFGTCSHSNLNGQYFRSIPQQRQKLKKGIFWKTWRGRYYPLQATTMLIQPMAAEAAS	no significant protective effect
ANGPTL4: Recombinant human ANGPTL4 (Angiopoietin-like 4), full length, SEQ ID NO: 1, purchased from R&D Systems (protein, listed as Homo sapiens) MSGAPTAGAALMLCAATAVLLSAQGGPVQSKSPRFASWDEMNVLAHGLLQLGQGLREHAERTRSQLSALERRLSACGSACQGTEGSTDLPLAPESRVDPEVLHSLQTQLKAQNSRIQQLFHKVAQQQRHLEKQHLRIQHLQSQFGLLDHKHLDHEVAKPARRKRLPEMAQPVDPAHNVSRLHRLPRDCQELFQVGERQSGLFEIQPQGSPPFLVNCKMTSDGGWTVIQRRHDGSVDFNRPWEAYKAGFGDPHGEFWLGLEKVHSITGDRNSRLAVQLRDWDGNAELLQFSVHLGGEDTAYSLQLTAPVAGQLGATTVPPSGLSVPFSTWDQDHDLRRDKNCAKSLSGGWWFGTCSHSNLNGQYFRSIPQQRQKLKKGIFWKTWRGRYYPLQATTMLIQPMAAEAAS	entirely preserved the integrity of this monolayer
